We go through three proteins from paper PMC5629373.

The nature of data set [1]: oligomer EMSA, 293T, loading adapted to STAT5 activity. The note with it: glycan lost; control: constructs without T92A. (A gel shift assay detects complexes by their altered migration in electrophoresis.)
Data set [2] in a line: immunoblot, 293T with EpoR, EPO stimulation. Conditions: glycan lost; control: matching construct without T92A (S5, cS5). For orientation: Immunoblotting shows a protein as a band on a membrane.
Data set [3] can be described thus: total STAT5 immunoblot, Ba/F3. The note with it: glycan lost; control: cS5.
Data set [4] is described as follows: phospho-serine immunoblot, Ba/F3. Conditions: glycan lost; control: cS5.
Data set [5] can be described thus: pYSTAT5 immunoblot, Ba/F3 cells ± IL-3. The note with it: glycan lost; control: cS5.
A short description of data set [6]: pYSTAT5 immunoblot time course after IL-3 withdrawal, Ba/F3. The note with it: glycan lost; control: cS5.

B1: STAT5A (S5; hyperactive variant cS5): T92A (protein)
parent chain: MAGWIQAQQLQGDALRQMQVLYGQHFPIEVRHYLAQWIESQPWDAIDLDNPQDRGQATQLLEGLVQELQKKAEHQVGEDGFLLKIKLGHYATQLQNTYDRCPMELVRCIRHILYNEQRLVREANNCSSPAGVLVDAMSQKHLQINQRFEELRLITQDTENELKKLQQTQEYFIIQYQESLRIQAQFAQLGQLNPQERMSRETALQQKQVSLETWLQREAQTLQQYRVELAEKHQKTLQLLRKQQTIILDDELIQWKRRQQLAGNGGPPEGSLDVLQSWCEKLAEIIWQNRQQIRRAEHLCQQLPIPGPVEEMLAEVNATITDIISALVTSTFIIEKQPPQVLKTQTKFAATVRLLVGGKLNVHMNPPQVKATIISEQQAKSLLKNENTRNECSGEILNNCCVMEYHQATGTLSAHFRNMSLKRIKRADRRGAESVTEEKFTVLFESQFSVGSNELVFQVKTLSLPVVVIVHGSQDHNATATVLWDNAFAEPGRVPFAVPDKVLWPQLCEALNMKFKAEVQSNRGLTKENLVFLAQKLFNISSNHLEDYNSMSVSWSQFNRENLPGWNYTFWQWFDGVMEVLKKHHKPHWNDGAILGFVNKQQAHDLLINKPDGTFLLRFSDSEIGGITIAWKFDSPDRNLWNLKPFTTRDFSIRSLADRLGDLNYLIYVFPDRPKDEVFAKYYTPVLAKAVDGYVKPQIKQVVPEFVNASTDAGASATYMDQAPSPVVCPQPHYNMYPPNPDPVLDQDGEFDLDESMDVARHVEELLRRPMDSLDARLSPPAGLFTSARSSLS
Consider B1, for which the oligomerisation entry in data set [1] is listed as “no change”.

B2: STAT5A (S5; hyperactive variant cS5): S5-T92A (protein)
parent chain: MAGWIQAQQLQGDALRQMQVLYGQHFPIEVRHYLAQWIESQPWDAIDLDNPQDRGQATQLLEGLVQELQKKAEHQVGEDGFLLKIKLGHYATQLQNTYDRCPMELVRCIRHILYNEQRLVREANNCSSPAGVLVDAMSQKHLQINQRFEELRLITQDTENELKKLQQTQEYFIIQYQESLRIQAQFAQLGQLNPQERMSRETALQQKQVSLETWLQREAQTLQQYRVELAEKHQKTLQLLRKQQTIILDDELIQWKRRQQLAGNGGPPEGSLDVLQSWCEKLAEIIWQNRQQIRRAEHLCQQLPIPGPVEEMLAEVNATITDIISALVTSTFIIEKQPPQVLKTQTKFAATVRLLVGGKLNVHMNPPQVKATIISEQQAKSLLKNENTRNECSGEILNNCCVMEYHQATGTLSAHFRNMSLKRIKRADRRGAESVTEEKFTVLFESQFSVGSNELVFQVKTLSLPVVVIVHGSQDHNATATVLWDNAFAEPGRVPFAVPDKVLWPQLCEALNMKFKAEVQSNRGLTKENLVFLAQKLFNISSNHLEDYNSMSVSWSQFNRENLPGWNYTFWQWFDGVMEVLKKHHKPHWNDGAILGFVNKQQAHDLLINKPDGTFLLRFSDSEIGGITIAWKFDSPDRNLWNLKPFTTRDFSIRSLADRLGDLNYLIYVFPDRPKDEVFAKYYTPVLAKAVDGYVKPQIKQVVPEFVNASTDAGASATYMDQAPSPVVCPQPHYNMYPPNPDPVLDQDGEFDLDESMDVARHVEELLRRPMDSLDARLSPPAGLFTSARSSLS
On to B2, for which the “other: tyrosine phosphorylation (pYSTAT5)” value in data set [2] was “no change”.

B3: STAT5A (S5; hyperactive variant cS5): cS5-T92A (protein)
parent chain: MAGWIQAQQLQGDALRQMQVLYGQHFPIEVRHYLAQWIESQPWDAIDLDNPQDRGQATQLLEGLVQELQKKAEHQVGEDGFLLKIKLGHYATQLQNTYDRCPMELVRCIRHILYNEQRLVREANNCSSPAGVLVDAMSQKHLQINQRFEELRLITQDTENELKKLQQTQEYFIIQYQESLRIQAQFAQLGQLNPQERMSRETALQQKQVSLETWLQREAQTLQQYRVELAEKHQKTLQLLRKQQTIILDDELIQWKRRQQLAGNGGPPEGSLDVLQSWCEKLAEIIWQNRQQIRRAEHLCQQLPIPGPVEEMLAEVNATITDIISALVTSTFIIEKQPPQVLKTQTKFAATVRLLVGGKLNVHMNPPQVKATIISEQQAKSLLKNENTRNECSGEILNNCCVMEYHQATGTLSAHFRNMSLKRIKRADRRGAESVTEEKFTVLFESQFSVGSNELVFQVKTLSLPVVVIVHGSQDHNATATVLWDNAFAEPGRVPFAVPDKVLWPQLCEALNMKFKAEVQSNRGLTKENLVFLAQKLFNISSNHLEDYNSMSVSWSQFNRENLPGWNYTFWQWFDGVMEVLKKHHKPHWNDGAILGFVNKQQAHDLLINKPDGTFLLRFSDSEIGGITIAWKFDSPDRNLWNLKPFTTRDFSIRSLADRLGDLNYLIYVFPDRPKDEVFAKYYTPVLAKAVDGYVKPQIKQVVPEFVNASTDAGASATYMDQAPSPVVCPQPHYNMYPPNPDPVLDQDGEFDLDESMDVARHVEELLRRPMDSLDARLSPPAGLFTSARSSLS
With B3, the expression_or_secretion result in data set [3] was “no change”. Moreover, the “other: serine 725/779 phosphorylation” value in data set [4] was “no change”. Besides, the “other: tyrosine phosphorylation (pYSTAT5)” value in data set [5] is “decreases”; in data set [2], “no change”. Moreover, in data set [6], the “other: persistence of tyrosine phosphorylation” value was “decreases”.
